Laboratory results reported in the DeepSol protein solubility set.

assay: soluble on expression in E. coli; label from the status in PepcDB or PDB records

Sequence	soluble on expression in E. coli
MRNLAIVDLGSNSARMAVSRLHANGTAQEIKRVKEDTRLSEGMGTAHVLQPAAIERTIKALLNFRRLYEKMPNTDVIGITTAAVRMAQNQTEFLNQVKQEVGLDLRVLSGDDEAYYDYLGVANSLVIHDCLILDTGGASCELILVKNGRKQQLISIPFGAVTLSEQFGLDDLVPSASLFRAQMFLRNRLADIWWLSEAVHFPIILLGGANRTLARINRRRQQKLKVEDIHGYRLKTETVFHTFLDLLSRSKKGRQEISGMEYDRADIIVGGMLPLVTLLQMLDSDRVIFSESGVREGIISEHLNQLEHHHHHH	not soluble
MRNTVNILGIPIDNVSMDEALNVVKGFLSEDRVHTVYTPNSEIMMAAQRDPELKKILCEADLLVPDGAGVVLASKINGCPLKERVAGFDLTNMLFSDEAAKAVNFFFLGGKPGVAEEAYKNLLDRKININVVGIRNGYFTKDEEEEIIRQINDSNTDVLLVALGAPKQEKWIHANKEKLKVKVCIGVGGTFDVLAGRAKRAPVFFQKHGLEWLYRLYKEPWRFVRMLDLPRFILRVIANKIRPEKPERA	soluble
MRPEDEALIVACIPSLRRYARGLTGERDRADDLVQDTLERAWSRFSRWQRRGELRAWMFGIMHNQFIDGLRAQKRQADYGAETEIPELPVRATQADRLEVRDLDRHLQRLPADLRAVLLLVAVEEFTYREAAQVLEVPIGTVMSRLSRARERLAALLQVQAEAPAASTVQRIRAT	not soluble
MRPLKISRDELLQRCAGTFRRYGYHGTTMEMLSSACGLTKASFYHHYPNKEALLRDVLEWTHQRLAETLFSIAYDPLLTPRERLEKLGRKAARLFQDDSIGCLMGVVAVDASYGRSELMAPIRSFLDDWAQAFAQLYRPAFDEAQALERGRQLVADFEGAILLARIYGEPGYIDGVTRRALEQLAG	not soluble
MRPLTLHTPKPLVRAGGIPLIEYHLNALRAAGFHQLVINHAWLGQQIEDYLGDGQRFDLSIRYSAEGQPLETGGGIQRALPLLGAEPFVVVNGDVWTDYDFGALRMPLAGLAHLVLIDNPAHHPTGDFSLVDGQVRDDDSAGLRLTYSGIAILHPQLFADCEPGAFKLAPLLREAMHQGLVTGEHFKGRWVDVGTHERLAEVEQLLAETRLEHHHHHH	not soluble
MRRAGYLHLYGLNLVFDRVGKGPPVLLVAEEASRWPEALPEGYAFYLLDLPGYGRTEGPRMAPEELAHFVAGFAVMMNLGAPWVLLRGLGLALGPHLEALGLRALPAEGVEVAEVLSSKLSYGNIDLGGNL	soluble
MRRCIELAKNGLCNVAPNPMVGAVIVCDGLIIGEGYHIRCGEAHAEVNAIRSVKDKSLLSRSTIYVSLEPCSHYGKTPPCADLIIEKQIPRIVIGCQDPFSQVAGRGIQKLRDAGREVTVGVLEKECRYLIRRFITFNTLHRPFITLKWAESADHFIDVERTDGNPVVLSSPLTSMLVHKKRAETDAIMVGRRTALLDNPSLTVRNWYGRNPVRIVLDRALSLPHSLRLFDGEVPTIVFTAEKHPDKKNVTYRTIEFTQDILPQIMKVLYQQKIQSLLVEGGSQLLQSFIDAELWDEVYIEKCPCKLNSGVKAPEISDNFSYSTEKHFDRQIWHYVFEK	not soluble
MRRHAIILAAGKGTRMKSKKYKVLHEVAGKPMVEHVLESVKGSGVDQVVTIVGHGAESVKGHLGERSLYSFQEEQLGTAHAVQMAKSHLEDKEGTTIVVCGDTPLITKETLETLIAHHEDANAQATVLSASIQQPYGYGRIVRNASGRLERIVEEKDATQAEKDINEISSGIFAFNNKTLFEKLTQVKNDNAQGEYYLPDVLSLILNDGGIVEVYRTNDVEEIMGVNDRVMLSQAEKAMQRRTNHYHMLNGVTIIDPDSTYIGPDVTIGSDTVIEPGVRINGRTEIGEDVVIGQYSEINNSTIENGACIQQSVVNDASVGANTKVGPFAQLRPGAQLGADVKVGNFVEIKKADLKDGAKVSHLSYIGDAVIGERTNIGCGTITVNYDGENKFKTIVGKDSFVGCNVNLVAPVTIGDDVLVAAGSTITDDVPNDSLAVARARQTTKEGYRK	not soluble
MRRLLLTLILAATLLGCSQAPQEKLKVGILPIEDSLPIVVADEQGFFKKHGLDVEVIQFSSAVERDAALTAGEVDAVITDPLAVILLRDKGYDVRIASLCLGKTPKEGVFAILAAPNSDIDSVEDLDGKEIAVSLNTIIEYALDVMLSEYGLNYTKISIPKIPIRMQALLNGNVETAVLPEPLASYAVSKGAKLILSDAMLNESITQTVIVFRGDVDDEKVQKFLEAYREAVREINANKEKYREKFIEIARVPENIAGSYPIPDYPEPQQLPKEYYDRYLEWAMQRGLIEKPVPYEEAIR	not soluble
